Target: 80S ribosome (rabbit (endogenous in reticulocyte lysate))
Test: co-sedimentation

| fold reduction of cosedimentation against WT SR [fold] | Substance |
| --- | --- |
| > 2 | SRdC, SRαβΔTM with the CBR of SRα (residues 129–176) replaced with (GS)6 (from UniProt P08240;Q9Y5M8) (complex) |
| > 2 | SRdR, SRαβΔTM with the RBR of SRα (residues 205–250) replaced with (GS)6 (from UniProt P08240;Q9Y5M8) (complex) |

Source: publication PMC6781444
